We go through one protein from publication PMC2949527 (Journal of molecular biology, 2010).

The data set deals with the molecule itself. In words: NMR solution structure.

B1: RFX5(25-90), oligomerization domain of RFX5 (domain or fragment, UniProt P48382 25-90, looked up)
chain: GEPTTLLQRLRGTISKAVQNKVEGILQDVQKFSDNDKLYLYLQLPSGPTTGDKSSEPSTLSNEEYM
As for B1, the “stoichiometry N” value turned out to be 2.

Broadly, the stoichiometry N is a count of units in the complex or per binding partner.
